Measured values reported in patent US20260008815A1, “CYCLIC PEPTIDE OR SALT THEREOF, AND USES THEREOF” (FUJIFILM Corporation, priority 2023, published 2026).
Bridge positions count the residues as written; N and C are the ends. Ends that are not written are not given here. COCH2 = acetyl group that carries the bridge

Biological target: T1, Recombinant Human FGFR2 alpha (IIIc) Fc Chimera Protein, CF (R&D systems, 712-FR-050) (human, UniProt P21802 22-377)
T1 construct: bought; not shown: Fc part of the chimera
Experiment: ELISA on plate-bound FGFR2-Fc
Method in brief: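 Plate-immobilized FGFR2 alpha (IIIc)-Fc (5 ng/well) incubated with peptide 3 h at room temperature, then anti-Myc antibody 2 h and chemiluminescent ELISA substrate. Signal corrected by subtracting FGFR-free wells; binding affinity scored into categories from the dose-response.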

T1 sequence (P21802 22-377, change not shown): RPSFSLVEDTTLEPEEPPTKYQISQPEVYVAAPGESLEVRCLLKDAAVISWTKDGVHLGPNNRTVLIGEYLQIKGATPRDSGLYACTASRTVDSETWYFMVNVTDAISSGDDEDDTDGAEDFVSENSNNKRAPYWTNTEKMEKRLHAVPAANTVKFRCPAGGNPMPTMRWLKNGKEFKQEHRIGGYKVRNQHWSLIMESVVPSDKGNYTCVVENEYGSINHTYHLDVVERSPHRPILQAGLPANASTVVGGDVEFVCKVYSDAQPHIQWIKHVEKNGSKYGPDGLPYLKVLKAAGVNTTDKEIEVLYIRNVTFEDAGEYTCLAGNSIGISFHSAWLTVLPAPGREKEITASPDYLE

Row | ELISA luminescence signal at 10 nmol/L peptide, relative to SEQ ID NO: 47 (=1) [ratio] | Binder
1 | 0.1 to 0.5 | KCPQAFINPVQWRYFQHYKN (thioether ring (C)-(K(acetyl))) [cyclic peptide SEQ ID NO: 56]
2 | ≥ 0.7 | KCPQNFINPVQWRYFAHYKN (not fully specified; thioether ring (C)-(K(acetyl))) [cyclic peptide SEQ ID NO: 65]
3 | ≥ 0.7 | GCPQNFINPVQWRYFQHYK(COCH2)N (thioether 2-19 (inferred)) [cyclic peptide SEQ ID NO: 71]
4 | 0.5 to 0.7 | KCPQNFIAPVQWRYFQHYKN (not fully specified; thioether ring (C)-(K(acetyl))) [cyclic peptide SEQ ID NO: 59]
5 | ≥ 0.7 | KCPQNFINPVQWRYFQHYKA (not fully specified; thioether ring (C)-(K(acetyl))) [cyclic peptide SEQ ID NO: 67]
6 | 0.1 to 0.5 | KCPQNFINPVQARYFQHYKN (not fully specified; thioether ring (C)-(K(acetyl))) [cyclic peptide SEQ ID NO: 62]
7 | ≥ 0.7 | PCPQNFINPVQWRYFQHYK(COCH2)N (thioether 2-19 (inferred)) [cyclic peptide SEQ ID NO: 72]
8 | ≥ 0.7 | WCPQNFINPVQWRYFQHYK(COCH2)N (thioether 2-19 (inferred)) [cyclic peptide SEQ ID NO: 78]
9 | 0.5 to 0.7 | KCPQNFINPVQWRAFQHYKN (not fully specified; thioether ring (C)-(K(acetyl))) [cyclic peptide SEQ ID NO: 64]
10 | ≥ 0.7 | NCPQNFINPVQWRYFQHYK(COCH2)N (thioether 2-19 (inferred)) [cyclic peptide SEQ ID NO: 79]
11 | ≥ 0.7 | YCPQNFINPVQWRYFQHYK(COCH2)N (thioether 2-19 (inferred)) [cyclic peptide SEQ ID NO: 77]
12 | ≥ 0.7 | KCPQNFINPVQWRYFQAYKN (not fully specified; thioether ring (C)-(K(acetyl))) [cyclic peptide SEQ ID NO: 66]
13 | ≥ 0.7 | VCPQNFINPVQWRYFQHYK(COCH2)N (thioether 2-19 (inferred)) [cyclic peptide SEQ ID NO: 75]
14 | ≥ 0.7 | LCPQNFINPVQWRYFQHYK(COCH2)N (thioether 2-19 (inferred)) [cyclic peptide SEQ ID NO: 73]
15 | 0.5 to 0.7 | KCPQNAINPVQWRYFQHYKN (thioether ring (C)-(K(acetyl))) [cyclic peptide SEQ ID NO: 57]
16 | ≥ 0.7 | ICPQNFINPVQWRYFQHYK(COCH2)N (thioether 2-19 (inferred)) [cyclic peptide SEQ ID NO: 74]
17 | 0.5 to 0.7 | KCPQNFANPVQWRYFQHYKN (thioether ring (C)-(K(acetyl))) [cyclic peptide SEQ ID NO: 58]
18 | ≥ 0.7 | KCPQNFINAVQWRYFQHYKN (not fully specified; thioether ring (C)-(K(acetyl))) [cyclic peptide SEQ ID NO: 60]
19 | ≥ 0.7 | KCPQNFINPVQWAYFQHYKN (not fully specified; thioether ring (C)-(K(acetyl))) [cyclic peptide SEQ ID NO: 63]
20 | ≥ 0.7 | FCPQNFINPVQWRYFQHYK(COCH2)N (thioether 2-19 (inferred)) [cyclic peptide SEQ ID NO: 76]
21 | ≥ 0.7 | KCPQNFINPAQWRYFQHYKN (not fully specified; thioether ring (C)-(K(acetyl))) [cyclic peptide SEQ ID NO: 61]
